For test [1], the target named is T1, Ffh (UniProt P0AGD7 1-453).
T1 chain: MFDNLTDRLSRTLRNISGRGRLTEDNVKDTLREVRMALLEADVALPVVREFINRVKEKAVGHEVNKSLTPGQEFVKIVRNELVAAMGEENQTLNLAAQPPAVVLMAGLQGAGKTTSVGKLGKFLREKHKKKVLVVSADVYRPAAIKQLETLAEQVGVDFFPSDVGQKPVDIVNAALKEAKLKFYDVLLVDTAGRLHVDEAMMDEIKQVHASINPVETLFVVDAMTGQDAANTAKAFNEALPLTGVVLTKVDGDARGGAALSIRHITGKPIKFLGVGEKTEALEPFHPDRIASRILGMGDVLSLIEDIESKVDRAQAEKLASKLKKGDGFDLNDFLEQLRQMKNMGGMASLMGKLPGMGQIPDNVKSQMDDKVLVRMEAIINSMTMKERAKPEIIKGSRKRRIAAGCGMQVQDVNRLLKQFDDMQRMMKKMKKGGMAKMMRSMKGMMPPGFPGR
Kind of test: GTP; inhibition assay.

Test [2] deals with T1, Ffh. Kind of test: GTP; inhibition assay.

Where a chain is given by its changes, count along the chain named. Like-named read-outs stand apart in the source and are kept apart here.

Our source for the Ki values is paper PMC517823 (2004).

B1: FtsY D330(135)A (protein)
chain: ASEQAVEEQPQAHTEAEAETFAADVVEVTEQVAESEKAQPEAEVVAQPEPVVEETPEPVAIEREELPLPEDVNAEAVSPEEWQAEAETVEIVEAAEEEAAKEEITDEELETALAAEAAEEAVMVVPPAEEEQPVEEIAQEQEKPTKEGFFARLKRSLLKTKENLGSGFISLFRGKKIDDDLFEELEEQLLIADVGVETTRKIITNLTEGASRKQLRDAEALYGLLKEEMGEILAKVDEPLNVEGKAPFVILMVGVNGVGKTTTIGKLARQFEQQGKSVMLAAGATFRAAAVEQLQVWGQRNNIPVIAQHTGADSASVIFDAIQAAKARNIDVLIADTAGRLQNKSHLMEELKKIVRVMKKLDVEAPHEVMLTIDASTGQNAVSQAKLFHEAVGLTGITLTKLDGTAKGGVIFSVADQFGIPIRYIGVGERIEDLRPFKADDFIEALFARED
With B1, the affinity in the test with Ffh [1] corresponds to a Ki of 2.4 µM.

B2: FtsY T307(112)W (protein)
chain: B1 chain with T261W, A284D
With B2, the inhibition constant (Ki) (usually the dissociation constant of the complex between target and ligand, obtained from inhibition or displacement) in the test with Ffh [1] amounted to 9.9 µM.

B3: FtsY G454(253)W (protein)
chain: B1 chain with A284D, G408W
B3: the inhibition constant (Ki) with Ffh [1] is 4.2 µM.

B4: FtsY K306(111)A (protein)
chain: B1 chain with K260A, A284D
For B4, the Ki with Ffh [1] was 3.5 µM. This Ki and that of the molecule before are within 1.5-fold of each other.

B5: FtsY K312(117)A (protein)
chain: B1 chain with K266A, A284D
In the test with Ffh [1], B5 had an inhibition constant (Ki) of 2.4 µM.

B6: FtsY K447(246)A (protein)
chain: B1 chain with A284D, K401A
For B6, the affinity with Ffh [1], expressed as Ki, was 11 µM.

B7: FtsY Asn302(107) to Ala (domain or fragment)
chain: B1 chain with N256A, A284D
Take B7: affinity with Ffh [1] was put at a Ki of 0.11 µM.

B8: FtsY T307(112)A (domain or fragment)
chain: B1 chain with T261A, A284D
On to B8, for which the Ki with Ffh [2] amounted to 5.5 µM; in the test with Ffh [1] it was 7.1 µM.

B9: FtsY Q339(144)A (protein)
chain: B1 chain with A284D, Q293A
As to B9, the Ki with Ffh [1] came to 3.9 µM. In other words, the single-digit micromolar range.

B10: FtsY D382(187)A (protein)
chain: B1 chain with A284D, D336A
B10: in the test with Ffh [1], the affinity corresponds to a Ki of 27 µM.

B11: FtsY Asn302(107) to Trp (domain or fragment)
chain: B1 chain with N256W, A284D
In the test with Ffh [1], B11 yielded a Ki of 0.14 µM.

B12: FtsY K453(252)E (protein)
chain: B1 chain with A284D, K407E
For B12, in the test with Ffh [1], the Ki was 3.1 µM. Compared with the last molecule, the Ki is about 22-fold higher.

B13: FtsY R333(138)A (domain or fragment)
chain: B1 chain with A284D, R287A
B13: the inhibitory constant (Ki) with Ffh [1] turned out to be 0.24 µM.

B14: FtsY D479(278)A (protein)
chain: B1 chain with A284D, D433A
Turning to B14, the affinity with Ffh [1], expressed as Ki, was 2.8 µM.

B15: FtsY A336(141)W (domain or fragment)
chain: B1 chain with A284D, A290W
Regarding B15, in the test with Ffh [1], the affinity, expressed as Ki, was 0.16 µM.
